The chains are these.
B1: Hairpin Ribozyme (parent)
chain: GUCCUCUUUCACGUGCGCGUGAAAGAGAGAAGUGAACCAGAGAAACACACGUUGUGGUAUAUUACCUGGUA

This data set covers variants of B1. The data set is described as follows: self-cleavage, relative activity (ratio to wild type); higher = more cleavage; co-transcriptional.
As for GUCCUCUUUCACGUGCGCGUGAAAGAGAGAAGUGAACCAGAGAAACACACCUUUUGGUAUAUUACCUGGUA [G51C G54U], the self-cleavage is 0.404. Regarding GUCCUCUUUCACGUGCGCGUGAAAGAGAGAAGUGAACCAGAGAAACACACGAUGUGGUGUAUUACCUGGUA [U52A A59G], the self-cleavage is 0.159.

On to GUCCUCUUUCACGUGCGCGUGAAAGAGAGAAGUGAACCAGAGAAACACACGAUGUGGUCUAUUACCUGGUA [U52A A59C], for which the self-cleavage amounted to 0.245. As for GUCCUCUUUCACGUGCGCGUGAAAGAGAGAAGUGAACCAGAGAAACACACAUUGUGGUAAAUUACCUGGUA [G51A U60A], the figure is 1.18.

Take GUCCUCUUUCACGUGCGCGUGAAAGAGAGAAGUGAACCAGAGAAACACACAUUGUGGUACAUUACCUGGUA [G51A U60C]: the self-cleavage stood at 0.944. With GUCCUCUUUCACGUGCGCGUGAAAGAGAGAAGUGAACCAGAGAAACACACAUUGUGGUAGAUUACCUGGUA [G51A U60G], the self-cleavage came out at 0.672. Regarding GUCCUCUUUCACGUGCGCGUGAAAGAGAGAAGUGAACCAGAGAAACACACCUUGUGGUAUAUUACCUUGUA [G51C G68U], the self-cleavage was 0.227.

For GUCCUCUUUCACGUGCGCGUGAAAGAGAGAAGUGAACCAGAGAAACACACAUUGUGGUAUAUAACCUGGUA [G51A U63A], the self-cleavage came out at 0.175.

For GUCCUCUUUCACGUGCGCGUGAAAGAGAGAAGUGAACCAGAGAAACACACAUUGUGGUAUAUCACCUGGUA [G51A U63C], the self-cleavage worked out at 0.109. On to GUCCUCUUUCACGUGCGCGUGAAAGAGAGAAGUGAACCAGAGAAACACACGACGUGGUAUAUUACCUGGUA [U52A U53C], for which the self-cleavage was found to be 1.32.

Take GUCCUCUUUCACGUGCGCGUGAAAGAGAGAAGUGAACCAGAGAAACACACUUUGUGGUAUAUUACGUGGUA [G51U C66G]: the self-cleavage was 0.2. In the case of GUCCUCUUUCACGUGCGCGUGAAAGAGAGAAGUGAACCAGAGAAACACACGAUGUGGUAUAUUACCUGCUA [U52A G69C] it was 0.268. In the case of GUCCUCUUUCACGUGCGCGUGAAAGAGAGAAGUGAACCAGAGAAACACACUUUGUGGUGUAUUACCUGGUA [G51U A59G] it was 0.138; in that of GUCCUCUUUCACGUGCGCGUGAAAGAGAGAAGUGAACCAGAGAAACACACUUUGUGGUUUAUUACCUGGUA [G51U A59U], 0.0798. As for GUCCUCUUUCACGUGCGCGUGAAAGAGAGAAGUGAACCAGAGAAACACACCGUGUGGUAUAUUACCUGGUA [G51C U52G], the figure is 0.469.

Consider GUCCUCUUUCACGUGCGCGUGAAAGAGAGAAGUGAACCAGAGAAACACACCAUGUGGUAUAUUACCUGGUA [G51C U52A], for which the self-cleavage was 0.761. Turning to GUCCUCUUUCACGUGCGCGUGAAAGAGAGAAGUGAACCAGAGAAACACACGCUGUGGUAUAUUACCUGAUA [U52C G69A], the self-cleavage turned out to be 0.416.

Regarding GUCCUCUUUCACGUGCGCGUGAAAGAGAGAAGUGAACCAGAGAAACACACUUUGUCGUAUAUUACCUGGUA [G51U G56C], the self-cleavage came to 0.201.

Regarding GUCCUCUUUCACGUGCGCGUGAAAGAGAGAAGUGAACCAGAGAAACACACGAUGUGGUAUAUUACAUGGUA [U52A C66A], the self-cleavage was determined as 0.398. GUCCUCUUUCACGUGCGCGUGAAAGAGAGAAGUGAACCAGAGAAACACACGAUGUGGUAUAUUAACUGGUA [U52A C65A]: the self-cleavage turned out to be 1.06. As for GUCCUCUUUCACGUGCGCGUGAAAGAGAGAAGUGAACCAGAGAAACACACGCUGUGGUAUAUUACAUGGUA [U52C C66A], the self-cleavage amounted to 0.279. As for GUCCUCUUUCACGUGCGCGUGAAAGAGAGAAGUGAACCAGAGAAACACACGCUGGGGUAUAUUACCUGGUA [U52C U55G], the self-cleavage was determined as 0.301. On to GUCCUCUUUCACGUGCGCGUGAAAGAGAGAAGUGAACCAGAGAAACACACGCUUUGGUAUAUUACCUGGUA [U52C G54U], for which the self-cleavage turned out to be 0.327. GUCCUCUUUCACGUGCGCGUGAAAGAGAGAAGUGAACCAGAGAAACACACGCUCUGGUAUAUUACCUGGUA [U52C G54C]: the self-cleavage came to 0.0624. On to GUCCUCUUUCACGUGCGCGUGAAAGAGAGAAGUGAACCAGAGAAACACACCUUGUGGUAUAUUUCCUGGUA [G51C A64U], for which the self-cleavage was 0.0968. Regarding GUCCUCUUUCACGUGCGCGUGAAAGAGAGAAGUGAACCAGAGAAACACACAUUGUGGAAUAUUACCUGGUA [G51A U58A], the self-cleavage came out at 0.674.

With GUCCUCUUUCACGUGCGCGUGAAAGAGAGAAGUGAACCAGAGAAACACACCUUGUGGUAUAUUACCUGGUU [G51C A71U], the self-cleavage was 0.722. Turning to GUCCUCUUUCACGUGCGCGUGAAAGAGAGAAGUGAACCAGAGAAACACACUUUGUGGUAUAGUACCUGGUA [G51U U62G], the self-cleavage was determined as 0.129.

Take GUCCUCUUUCACGUGCGCGUGAAAGAGAGAAGUGAACCAGAGAAACACACGAUGUGGUAUAUUACCAGGUA [U52A U67A]: the self-cleavage came to 0.307. In the case of GUCCUCUUUCACGUGCGCGUGAAAGAGAGAAGUGAACCAGAGAAACACACGAUGUGGUAUAUUACCCGGUA [U52A U67C], the self-cleavage is 0.239. As to GUCCUCUUUCACGUGCGCGUGAAAGAGAGAAGUGAACCAGAGAAACACACUUUGUGAUAUAUUACCUGGUA [G51U G57A], the self-cleavage is 0.122.

Regarding GUCCUCUUUCACGUGCGCGUGAAAGAGAGAAGUGAACCAGAGAAACACACUUUGGGGUAUAUUACCUGGUA [G51U U55G], the self-cleavage came out at 0.222.

Consider GUCCUCUUUCACGUGCGCGUGAAAGAGAGAAGUGAACCAGAGAAACACACUUUGUGGUAUAUUACCUGCUA [G51U G69C], for which the self-cleavage was 0.519. In the case of GUCCUCUUUCACGUGCGCGUGAAAGAGAGAAGUGAACCAGAGAAACACACCUUGAGGUAUAUUACCUGGUA [G51C U55A] it was 0.19; in that of GUCCUCUUUCACGUGCGCGUGAAAGAGAGAAGUGAACCAGAGAAACACACUUUGUGGUAAAUUACCUGGUA [G51U U60A], 1.11. Take GUCCUCUUUCACGUGCGCGUGAAAGAGAGAAGUGAACCAGAGAAACACACCUUGUGGUCUAUUACCUGGUA [G51C A59C]: the self-cleavage came to 0.14. For GUCCUCUUUCACGUGCGCGUGAAAGAGAGAAGUGAACCAGAGAAACACACCUUGUGGUAUUUUACCUGGUA [G51C A61U], the self-cleavage stood at 0.196. As for GUCCUCUUUCACGUGCGCGUGAAAGAGAGAAGUGAACCAGAGAAACACACCUUGUGGUAUGUUACCUGGUA [G51C A61G], the figure is 0.138.

The values above are taken from the RNAGym collection of RNA variant scans (doi:10.7554/elife.80360).
